This is an account of results in patent EP1591450A1, “CONJUGATE FOR RETENTION IN BLOOD AND CANCER TISSUE-SPECIFIC DRUG DELIVERY” (YAMANOUCHI PHARMACEUTICAL CO. LTD., priority 2003, dated 2004).

Where a SMILES comes first, the peptide text is derived from it. The star is where a group is joined. X1 = O=C(OCC1c2ccccc2-c2ccccc21)N(CC(=O)*)C(=O)OCC1c2ccccc2-c2ccccc21; Fmoc = O=C(OCC1c2ccccc2-c2ccccc21)*

Data set [1] addresses T1, MMP-2 (Homo sapiens, UniProt P08253).
T1 sequence (P08253 110-660): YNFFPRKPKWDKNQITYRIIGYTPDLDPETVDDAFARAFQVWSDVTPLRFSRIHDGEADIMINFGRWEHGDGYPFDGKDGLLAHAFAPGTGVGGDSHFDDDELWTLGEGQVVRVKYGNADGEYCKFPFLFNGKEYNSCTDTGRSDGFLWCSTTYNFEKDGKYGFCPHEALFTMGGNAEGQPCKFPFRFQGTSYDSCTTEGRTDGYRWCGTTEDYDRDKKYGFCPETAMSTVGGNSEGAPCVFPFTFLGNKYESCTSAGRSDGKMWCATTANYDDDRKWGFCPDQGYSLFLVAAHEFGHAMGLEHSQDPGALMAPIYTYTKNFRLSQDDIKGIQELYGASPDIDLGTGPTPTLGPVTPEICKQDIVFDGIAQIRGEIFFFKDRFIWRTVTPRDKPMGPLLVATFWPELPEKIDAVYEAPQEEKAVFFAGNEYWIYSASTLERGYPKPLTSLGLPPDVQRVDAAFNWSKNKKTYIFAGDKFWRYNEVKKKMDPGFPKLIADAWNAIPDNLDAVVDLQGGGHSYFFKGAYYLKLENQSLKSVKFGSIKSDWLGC
The data set is described as follows: Enzymatic degradation of peptide and peptide-PEG by MMP-2. The format is biochemical. Particulars: beginning of reaction (15 minutes), 37°C, Tris buffer pH 7.5; Figure 4. As for the experimental part: After mixing in 0.5 ml of sample in 0.5 ml of acetonitrile, the mixture was filtered and gel filtration was performed.
MMP-2 solution was diluted with Tris buffer. […] The final concentration of MMP-2 was 0.34 µg/ml. […] The Fmoc-GPQGIAGWG-PEG in the filtrate was separated and quantitatively determined by gel filtration.

Data set [2] deals with aminopeptidase-1. The note with it: per unit weight of enzyme and unit time, beginning (15 minutes) of reaction, 37°C, Tris buffer pH 7.5; MMP-2 0.17 µg/ml, aminopeptidase-1 10 µg/ml. As for the experimental part: (§1) Fmoc-[…] was dissolved in Tris buffer (100 mM Tris/100 mM NaCl/10 mM CaCl2/0.05% BRIJ35, pH 7.5) and adjusted to a pre-determined concentration. MMP-2, collagenase, carboxypeptidase A, aminopeptidase-1, and trypsin were each diluted or dissolved in Tris buffer. Each enzyme solution was added to Fmoc-[…] solution that had been heated to 37°C and incubated for a pre-determined time at 37°C. The final concentration of the enzymes was as shown below: MMP-2: 0.17 µg/ml, collagenase: 7 µg/ml, carboxypeptidase A: 10 µg/ml, aminopeptidase-1: 10 µg/ml, trypsin: 10 µg/ml. After a pre-determined time, the same amount of acetonitrile was added to the sample solutions and they were filtered with a 0.5 µm filter (Millex-LH MILIPORE).

Data set [3] deals with carboxypeptidase A (Homo sapiens, UniProt P15085). The note with it: per unit weight of enzyme and unit time, beginning (15 minutes) of reaction, 37°C, Tris buffer pH 7.5; MMP-2 0.17 µg/ml, carboxypeptidase A 10 µg/ml. As for the experimental part:
as §1

Data set [4] deals with collagenase. Particulars: per unit weight of enzyme and unit time, beginning (15 minutes) of reaction, 37°C, Tris buffer pH 7.5; MMP-2 0.17 µg/ml, collagenase 7 µg/ml. As for the experimental part: as §1
Data set [5] deals with T2, trypsin (Bos taurus, UniProt P00760).
T2 construct: gene PRSS1
T2 sequence (P00760 24-246): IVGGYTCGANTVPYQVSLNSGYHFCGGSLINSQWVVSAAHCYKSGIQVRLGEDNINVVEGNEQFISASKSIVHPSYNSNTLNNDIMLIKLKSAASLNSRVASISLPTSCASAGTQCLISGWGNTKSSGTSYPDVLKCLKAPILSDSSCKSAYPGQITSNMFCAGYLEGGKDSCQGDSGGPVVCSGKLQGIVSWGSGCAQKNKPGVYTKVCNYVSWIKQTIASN
Description: Enzymatic degradation of peptide by trypsin. It is filed as biochemical. The note with it: trypsin 10 µg/ml, 37°C, Tris buffer pH 7.5. As for the experimental part: as §1

The nature of data set [6]: Particle diameter determination of peptide-PEG micelles (NICOMP Model 370). The format is physicochemical. As for the experimental part: The particle diameter of the micelles and the liposomes was determined with the NICOMP Model 370 (Particle Sizing Systems, Inc.).
Then particle diameter was determined by a laser diffraction particle diameter distribution determination device (NICOMP Model 370)(Table1).

Sequence of carboxypeptidase A (P15085 111-419): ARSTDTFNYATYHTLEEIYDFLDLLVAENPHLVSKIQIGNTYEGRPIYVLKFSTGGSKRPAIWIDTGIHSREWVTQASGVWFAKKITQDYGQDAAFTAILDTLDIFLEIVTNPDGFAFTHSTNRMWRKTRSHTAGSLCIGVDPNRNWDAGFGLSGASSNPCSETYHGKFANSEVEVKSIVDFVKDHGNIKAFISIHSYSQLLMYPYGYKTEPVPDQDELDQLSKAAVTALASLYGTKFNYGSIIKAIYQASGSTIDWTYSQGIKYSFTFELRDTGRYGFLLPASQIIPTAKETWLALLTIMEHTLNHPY

With `CC[C@H](C)[C@H](NC(=O)CNC(=O)[C@H](CCC(=O)O)NC(=O)[C@@H]1CCCN1C(=O)CN(C(=O)OCC1c2ccccc2-c2ccccc21)C(=O)OCC1c2ccccc2-c2ccccc21)C(=O)N[C@@H](C)C(=O)NCC(=O)N[C@@H](Cc1c[nH]c2ccccc12)C(=O)NCC(=O)O` [Fmoc-GPQGIAGWG, 9-fluorenylmethyloxycarbonyl (Fmoc)-glycyl-prolyl-glutamyl-glycyl-isoleucyl-alanyl-glycyl-tryptophanyl-glycine (Gly-Pro-Gln-Gly-Ile-Ma-Gly-Trp-Gly)] (X1-PEGIAGWG-OH), the “degradation rate by MMP-2 per unit weight of MMP-2 and unit time, peptide compared with peptide-PEG” value in data set [1] is on record as “virtually the same”. Moreover, the “degradation rate by MMP-2 relative to that of aminopeptidase-1” value in data set [2] was 14.2 x. For the same compound, in data set [3], the “degradation rate by MMP-2 relative to that of carboxypeptidase A” value came out at 38.8 x. Besides, the “degradation rate by MMP-2 relative to that of collagenase” value in data set [4] was found to be 26.9 x. Moreover, in data set [5], the Degradation by trypsin entry is listed as “not observed”.
For the compound “9-fluorenylmethyloxycarbonyl (Fmoc)-glycyl-prolyl-glutamyl-glycyl-isoleucyl-alanyl-glycyl-tryptophanyl-glycyl (Gly-Pro-Gln-Gly-Ile-Ala-Gly-Trp-Gly)-amide propyl polyoxyethylene methyl ether (Fmoc-GPQGIAGWG-{amide propyl polyoxyethylene methyl ether}; not fully specified) [Fmoc-GPQGIAGWG-PEG]”, the Particle diameter in data set [6] (Concentration 5 µM in Tris buffer pH 7.5) was 232 nm; in data set [6] (Concentration 10 µM in Tris buffer pH 7.5), 200 nm; in data set [6] (Concentration 20 µM in Tris buffer pH 7.5), 205 nm; in data set [6] (Concentration 50 µM in Tris buffer pH 7.5), 210 nm; in data set [6] (Concentration 100 µM in Tris buffer pH 7.5), 237 nm. In addition, in data set [6] (at 5 µm or more), the “particle diameter of aggregate” value is “approximately 200 nm”. In addition, in data set [6] (concluded from particle diameter and laser scattering intensity, Tris buffer pH 7.5), the critical micelle concentration is given as ~5 µM. Besides, the “degradation rate by MMP-2 per unit weight of MMP-2 and unit time, peptide compared with peptide-PEG” value in data set [1] is recorded as “virtually the same”.
